Patent US20260125454A1 (SHANGHAI JUNSHI BIOSCIENCES, published 2026)
Where “and” joins values, the source holds several entries; their conditions need not be identical. Identical values can stand only once. Like-named read-outs stand apart in the source and are kept apart here. Bridges are numbered along the chain shown (N, C = ends). Where no end group is shown, it is not given here.

T1: Biotin-huCGRPaSA (human, not fully specified; biotin (position not given))
T1 construct: exact construct ('aSA') not explained; also called Biotin CGRPaSA; full-length (1-37) CGRP
T1 peptide: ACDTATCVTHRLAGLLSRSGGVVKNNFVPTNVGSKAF

T2: Biotin-1-19 polypeptide (human, disulfide 2-7; not fully specified (N-terminus); printed as Biotin-Linker(G5)-ACDTATCVTHRLAGLLSRS; ends not checked; also: biotin, position not given here)
T2 construct: also called fragment CGRP (1-19); truncated (1-19) CGRP
T2 peptide: ACDTATCVTHRLAGLLSRS


Assays:
[1] = target: CGRP antigen; test: cell-based or functional assay
[2] = target: T1, Biotin-huCGRPaSA; test: ELISA, transfection supernatant, biotin-CGRP on streptavidin
Protocol: Streptavidin was diluted to 0.5 μg/mL by using PBS (Hyclone) and added into a plate at 100 μL/well. The plate was incubated in a thermostat incubator at 37° C. for 90 min and then washed. 2% BSA was added to the plate at 200 μL/well, and the plate was incubated in the thermostat incubator at 37° C. for 90 min and washed. Biotin-huCGRPaSA was diluted to 2.0 μg/mL with 2% BSA and added into the plate at 100 μL/well, and the plate was incubated in the thermostat incubator at 37° C. for 60 min. The reference antibody (47-RM) was diluted to 2500 ng/ml with a diluent (2% BSA) and serially 4-fold diluted to 0.15 ng/mL, and the chimeric antibodies were diluted with a cell supernatant stock solution. All the chimeric antibody solutions and the reference antibody solution were added into plates at 80 μL/well, and the plates were incubated in a thermostat incubator at 37° C. for 60 min and washed. An HRP-conjugated mouse anti-human antibody IgG4 (manufacturer: Southern Biotech, Cat. No. 9200-05; Fc specificity) was diluted 5000-fold with 2% BSA and added into the plates at 100 μL/well, and the plates were incubated in the thermostat incubator at 37° C. for 60 min and washed. 0.1 mg/mL chromogenic reagent TMB was carefully added at 100 μL/well to avoid bubbles, and the system was incubated at 37° C. for 10 min away from light for chromogenic reaction. Finally, a 2 M hydrochloric acid solution was added at 100 μL/well to stop the reaction while avoiding bubbles, and the plates were read on a microplate reader within 10 min (the detection wavelength was 450 nm; the reference wavelength was 620 nm).

[3] = target: T1, Biotin-huCGRPaSA; test: ELISA, purified antibody; relative to reference 47-RM-20190815
Protocol: Streptavidin was diluted to […] by using PBS (Hyclone) and added into a plate at 100 μL/well. The plate was incubated in a thermostat incubator at 37° C. for 90 min and then washed. 2% BSA was added to the plate at 200 μL/well, and the plate was incubated in the thermostat incubator at 37° C. for 90 min and washed. Biotin-huCGRPaSA was diluted to 2.0 μg/mL with 2% BSA and added into the plate at 100 μL/well, and the plate was incubated in the thermostat incubator at 37° C. for 60 min. The chimeric antibodies in Table 3 and reference antibody (47-RM-20190815) were diluted to 1000 ng/ml with a diluent (2% BSA) and serially 10-fold diluted to 1 ng/mL. All the chimeric antibody solutions and the reference antibody solution were added into plates at 100 μL/well, and the plates were incubated in a thermostat incubator at 37° C. for 60 min and washed. An HRP-conjugated mouse anti-human antibody IgG4 (manufacturer: Southern Biotech, Cat. No. 9200-05; Fc specificity) was diluted 5000-fold with 2% BSA and added into the plates at 100 μL/well, and the plates were incubated in the thermostat incubator at 37° C. for 60 min and washed. 0.1 mg/mL chromogenic reagent TMB was carefully added at 100 μL/well to avoid bubbles, and the system was incubated at 37° C. for 5 min away from light for chromogenic reaction. Finally, a 2 M hydrochloric acid solution was added at 100 μL/well to stop the reaction while avoiding bubbles, and the plates were read on a microplate reader within 10 min (the detection wavelength was 450 nm; the reference wavelength was 620 nm). EC₅₀ was fit by using a four-parameter logistic regression (4PL) model.

[4] = target: T2, Biotin-1-19 polypeptide; test: ELISA, transfection supernatant, biotin-CGRP(1-19) on streptavidin
Protocol: Streptavidin was diluted to 0.5 μg/mL by using PBS (Hyclone) and added into a plate at 100 μL/well. The plate was incubated in a thermostat incubator at 37° C. for 90 min and then washed. 2% BSA was added to the plate at 200 μL/well, and the plate was incubated in the thermostat incubator at 37° C. for 90 min and washed. Biotin-1-19 polypeptide was diluted to 2.0 μg/mL with 2% BSA and added into the plate at 100 μL/well, and the plate was incubated in the thermostat incubator at 37° C. for 60 min. The reference antibody (Lily) was diluted to 2500 ng/ml with a diluent (2% BSA) and then serially 4-fold diluted to 0.15 ng/ml. For chimeric antibodies, the stock solution was diluted. All the chimeric antibody solutions and the reference antibody solution were added into plates at 80 μL/well, and the plates were incubated in a thermostat incubator at 37° C. for 60 min and washed. An HRP-conjugated mouse anti-human antibody IgG4 (manufacturer: Southern Biotech, Cat. No. 9200-05; Fc specificity) was diluted 5000-fold with 2% BSA and added into the plates at 100 µL/well, and the plates were incubated in the thermostat incubator at 37° C. for 60 min and washed. 0.1 mg/mL chromogenic reagent TMB was carefully added at 100 μL/well to avoid bubbles, and the system was incubated at 37° C. for 10 min away from light for chromogenic reaction. Finally, a 2 M hydrochloric acid solution was added at 100 μL/well to stop the reaction while avoiding bubbles, and the plates were read on a microplate reader within 10 min (the detection wavelength was 450 nm; the reference wavelength was 620 nm).

[5] = target: CGRP antigen; test: cell-based or functional assay; remark: listed apart in the source
[6] = target: CGRP antigen; test: cell-based or functional assay; remark: listed apart in the source

Row | Binder | Relative binding activity (%) vs Ref(Teva) [1] | OD value [2] | Relative activity (%) [3] | OD value [4] | Relative binding activity (%) vs Ref(Teva) [5] | IC50 of reference C245 [6]
1 | C71 (antibody, V domains shown, 1F5-HC + 1A2-LC2; chimeric, human constant regions) VH: EVQLQQSGPELVKPGASVKISCKTSGYTFIDFNMHWVKQSHGKSLEWIGYIYPYNGDVVYNQNFTNKATLTVDSSSSTAYMELRRVTSEDSAIYYCAREGLGGYWGQGTTLTVSS VL: DIVLTQSPASLAVSLGQRATISCKASQNIDYDGYAYLNWYQQKPGQPPKVLIYSVFNLESGIPARFSGSGSGTDFTLNIHPVEEEDAATYYCQQSNEFPYTFGGGTKLEVK | 106% | 3.06 OD | 47.3% | – | – | –
2 | C74 (antibody, V domains shown, 1F5-HC + 1F5-LC1; chimeric, human constant regions) VH: EVQLQQSGPELVKPGASVKISCKTSGYTFIDFNMHWVKQSHGKSLEWIGYIYPYNGDVVYNQNFTNKATLTVDSSSSTAYMELRRVTSEDSAIYYCAREGLGGYWGQGTTLTVSS VL: DIVLTQSPASLAVSLGQRATISCKASQNIDFDGYAYMNWYQHKPGQPPRVLIYSVFNLESGIPARFSGSGSGTDFTLNIHPVEEEDAATYYCQQSHEVPYTFGGGTNLEIK | 76% | 3.06 OD | 39.5% | – | – | –
3 | C245 (antibody, V domains shown, 3C1-HC + 3C1-LC; chimeric, human constant regions; also called chimeric antibody C245) VH: EVQLQQSGPELVKPGASMKISCKASGYSFTGYTMNWVKQSHGNNLEWIGLINPYIGNTHYNQKFKDKATFTVDRSSSTAYMALLSLTSEDSAVYYCARELDSGFDYWGQGTTLTVSS VL: DVLMTQTPLSLPVSLGDQASLSCRSSQNIVHSNGDTYLEWYLQKPGQSPKLLIYKVSNRFSGVPDRFSGSGSGTDFTLKISRVEAEDLGVYYCYQGSHVPWTFGGGTKLEIK | – | 3.31 OD | 240% | 2.51 OD | 116% | 0.018 µg/mL and 0.0236 µg/mL and 0.0259 µg/mL and 0.0281 µg/mL
4 | C232 (antibody, V domains shown, 3C1-HC + 1A2-LC2; chimeric, human constant regions) VH: EVQLQQSGPELVKPGASMKISCKASGYSFTGYTMNWVKQSHGNNLEWIGLINPYIGNTHYNQKFKDKATFTVDRSSSTAYMALLSLTSEDSAVYYCARELDSGFDYWGQGTTLTVSS VL: DIVLTQSPASLAVSLGQRATISCKASQNIDYDGYAYLNWYQQKPGQPPKVLIYSVFNLESGIPARFSGSGSGTDFTLNIHPVEEEDAATYYCQQSNEFPYTFGGGTKLEVK | – | 3.28 OD | 3.4% | 3.15 OD | – | –
